Source: patent US20220174981A1, “PROLINE TOLERANT TRIPEPTIDYL PEPTIDASES AND USES THEREOF” (DuPont Nutrition Biosciences APS, priority 2014, published 2022)
Values joined by “and” are separate entries in the source; they are usually repeats but may differ in a detail not shown here. Identical values can stand only once.

B1: TRI071: Proline tolerant tripeptidyl peptidase TRI071 (SEQ ID No. 12 or SEQ ID No. 39) (protein, listed as Fusarium oxysporum)
chain 1: KSFSHHAEAPQGWQVQKTAKVASNTQHVFSLALTMQNVDQLESKLLDLSSPDSANYGNWLSHDELTSTFSPSKEAVASVTKWLKSKGIKHYKVNGAFIDFAADVEKANTLLGGDYQYYTKDGQTKLRTLSYSIPDDVAGHVQFVDPSTNFGGTVAFNPVPHPSRTLQERKVSPSKSTVDASCQTSITPSCLKQMYNIGDYTPDAKSGSEIGFSSFLGQAAIYSDVFKFEELFGIPKQNYTTILINNGTDDQNTAHGNFGEANLDAENIVGIAHPLPFKQYITGGSPPFVPNIDQPTEKDNQNEPYVPFFRYLLGQKDLPAVISTSYGDEEDSVPREYATLTCNMIGLLGLRGISVIFSSGDIGVGSGCLAPDYKTVEFNAIFPATCPYLTSVGGTVDVTPEIAWEGSSGGFSKYFPRPSYQDKAIKKYMKTVSKETKKYYGPYTNWEGRGFPDVAGHSVAPDYEVIYNGKQARSGGTSAAAPVWAAIVGLLNDARFKAGKKSLGWLNPLIYKHGPKVLTDITGGYAIGCDGNNTQSGKPEPAGSGLVPGARWNATAGWDPTTGYGTPNFQKLKDLVLSL
chain 2: CQTSITPSCLKQMYNIGDYTPDAKSGSEIGFSSFLGQAAIYSDVFKFEELFGIPKQNYTTILINNGTDDQNTAHGNFGEANLDAENIVGIAHPLPFKQYITGGSPPFVPNIDQPTEKDNQNEPYVPFFRYLLGQKDLPAVISTSYGDEEDSVPREYATLTCNMIGLLGLRGISVIFSSGDIGVGSGCLAPDYKTVEFNAIFPATCPYLTSVGGTVDVTPEIAWEGSSGGFSKYFPRPSYQDKAIKKYMKTVSKETKKYYGPYTNWEGRGFPDVAGHSVAPDYEVIYNGKQARSGGTSAAAPVWAAIVGLLNDARFKAGKKSLGWLNPLIYKHGPKVLTDITGGYAIGCDGNNTQSGKPEPAGSGLVPGARWNATAGWDPTTGYGTPNFQKLKDLVLS

How the values were obtained:
[1] = target: proline tolerant tripeptidyl peptidase (TRI083); experiment: Product inhibition of TRI083 (Ala-Ala-Ala-pNA substrate); assay type: biochemical, T. reesei; conditions: treated as competitive inhibitors
Experimental: For proline tolerant tripeptidyl peptidase the chromogenic peptide H-Ala-Ala-Ala-pNA was used. The assay was conducted as follows, 27.5 μL of appropriately diluted enzyme was added to 200 μl McIlvaine buffer (20 mM, pH 4.0). After incubation at 50° C. for 5 min, 12.5 μL of the chromogenic peptide solution (5 mg/mL dissolved in dimethyl sulfoxide (DMSO); Sigma-Aldrich, Denmark) were added to the reaction mixture. The reaction was terminated by adding 50 μL of 0.5 M trichloroacetic acid (TCA; Sigma-Aldrich, Denmark). After centrifugation (15,000×g, 5 min), 240 μL of the solution were transferred to a microtiter plate (MTP; Kisker-biotech, Germany) and the absorption was measured in an MTP reader (Molecular Devices, Denmark) at 405 nm. One katal of proteolytic activity was defined as the amount of enzyme required to release 1 mol of p-nitroaniline per second.
Inhibition experiments were conducted with TRI083 and Ala-Ala-Ala-pNA ([…]) as substrate in the assay described in Example 8. The assay was run without inhibitor, with 3.6 mM tripeptide (H-Ala-Ala-Ala-OH; Bachem, Switzerland), 18 mM dipeptide (H-Ala-Ala-OH; Bachem, Switzerland) or 18 mM alanine (Sigma-Aldrich, Denmark). […]
Subsequently, TRI083 was analyzed for product inhibition without inhibitor, with 1 mg/mL H-Ala-Ala-Ala-OH as well with the PepN pre-hydrolyzed H-Ala-Ala-Ala-OH (1 mg/mL).

[2] = test system: whey protein isolate (WPI); experiment: 15% WPI hydrolysis with endopeptidase and proline tolerant tripeptidyl peptidase homologues; assay type: biochemical; conditions: after 7 h of hydrolysis, compared to the reference (endopeptidase); FIG. 14
Experimental: For WPI hydrolysis, Lacprodan-9224 (Arla Food Ingredients, Denmark) was employed, a 15% (w/w) WPI suspension was prepared in H2Od and adjusted to pH 4.5 with acetic acid (Sigma-Aldrich, Denmark). To prevent microbial growth, 0.0285% (w/w) NaN3 was added. Subsequently, 1% (w/w) Alphalase® FP2 was added and a volume of 200 μl of the WPI suspension was transferred into each of the 96 wells of a microtiter plate (MTP; VWR, Denmark). Following this, 5 μl of each proline tolerant tripeptidyl peptidase homologue containing either 0 or 4375nkatH-Ala-Ala-Ala-pNA/mL were added to the particular wells of the MTP. Then, the MTP was sealed and placed in an incubator at 40° C. (iEMS incubator/shaker HT, Thermo Scientific, Denmark).
[…] Unhydrolyzed, precipitated WPI was removed by filtration (0.22 μm; Corning 3504 filter plate, Corning Incorporated, USA). The filtered WPI hydrolysate was employed for o-phthaldehyde (OPA) derivatization (Nielsen, Petersen et al. 2001). The OPA derivatization was conducted according to Nielsen et al., (2001) with minor modifications. A sample volume of 25 μl was transferred to a well and 175 μl of OPA-reagent, dissolved in trisodium phosphate-dodecahydrate, was added subsequently. The measured absorptions at 340 nm in a MTP reader (VersaMax, Molecular Devices, Denmark) were transformed into serine equivalents employing a serine calibration curve (0-2 mM).

H-Ala-Ala-Phe-pNA = experiment: Low pH stability of tripeptidyl peptidases (pH 2.5, 40° C., 60 min), activity on H-Ala-Ala-Phe-pNA; assay type: biochemical; conditions: for OD410nm (Final): after pH 2.5, 40° C., 60 min; for OD410nm (Initial): without incubation at 40° C. for 60 min
Experimental: As requirements for utilization of the enzymes in feed for monogastric animals, the enzymes should be active at lower pH. For this reason the number of tripeptidyl peptidases has been tested with the reaction on synthetic substrate AAF (H-Ala-Ala-Phe-pNA. BACHEM, L-1095), at pH 2.5.
The tripeptide substrate AAF was prepared at 2.5 mg/ml in DMSO. Tripeptidyl peptidases were used as broth. The reaction mixture containing 2.5 μl enzyme and 90 μL glycine acetic acid-Tris buffer (each buffer components at 50 mM, pH 2.5) was prepared in 96 well incubation plates.
The incubation plate was mixed and incubated at 40° C. for 60 min. Then 50 μl 0.2M Mes-NaOH pH6.0 was added to each well, mixed at 600 rpm for 2 min. After that, 5 ul of the incubation mixture were taken to 96 well assay plate already filled with 85 μl 0.1M acetic acid buffer, pH4.0 and 5 μl 2.5 mg/ml AAF substrate solution.
The reaction mixture was stirred at 600 rpm for 2 min and read directly in a microplate reader (Molecular Devices, Denmark) at 410 nm at 30° C. every 30 second for 15 min.
To measure initial enzyme activity, similar procedure was performed except the step of enzyme incubation at 40° C. for 60 min.

[3] = listed as TRI071 (pool1) 2% glu/soph
[4] = listed as TRI071 (pool1) 4% glu/soph

Molecule	Ki [1]	relative increase of SE [2]	OD410nm (Final) (H-Ala-Ala-Phe-pNA; [3])	OD410nm (Final) (H-Ala-Ala-Phe-pNA; [4])	OD410nm (Initial) (H-Ala-Ala-Phe-pNA; [3])	OD410nm (Initial) (H-Ala-Ala-Phe-pNA; [4])
C[C@H](N)C(=O)O [Alanine, alanine]	no inhibition at all	–	–	–	–	–
B1	–	about 64%	0.589 and 0.672	0.453 and 0.6	0.757 and 0.815	0.466 and 0.67
